This assay deals with SARS-CoV-2 spike receptor binding domain, wild type (SARS-CoV-2) (UniProt P0DTC2). The assay can be described thus: ITC.

A word on the Kd: it is the constant that tells how readily two partners part at equilibrium. Broadly, the stoichiometry N is the number of molecules, sites or subunits per partner or assembly.

Substance “CC12.1 single chain variable fragment (scFv)” came in with a Kd of 28 nM, a dH of 4.8 kcal/mol and a stoichiometry N of 1.
